In patent US20080152587A1 (Amgen, published 2008):

Assays:
[1] = molecular target: T1, human urokinase-type plasminogen activator receptor (uPAR, CD87), cell-bound (human, UniProt Q03405 23-305); test: cell-based or functional assay
[2] = molecular target: T1, human urokinase-type plasminogen …; test: cell-based or functional assay; remark: listed apart in the source
[3] = molecular target: T2, soluble recombinant human uPAR/His6 (R&D Systems, Cat. # 807-UK-100) (human, UniProt Q03405 23-303); test: low resolution Biacore
T2 construct: range 1-303; Bought protein; also called soluble uPAR; hu-uPAR
T2 sequence (Q03405 other isoform, or with tags, fused parts or gaps limits assumed, form in doubt): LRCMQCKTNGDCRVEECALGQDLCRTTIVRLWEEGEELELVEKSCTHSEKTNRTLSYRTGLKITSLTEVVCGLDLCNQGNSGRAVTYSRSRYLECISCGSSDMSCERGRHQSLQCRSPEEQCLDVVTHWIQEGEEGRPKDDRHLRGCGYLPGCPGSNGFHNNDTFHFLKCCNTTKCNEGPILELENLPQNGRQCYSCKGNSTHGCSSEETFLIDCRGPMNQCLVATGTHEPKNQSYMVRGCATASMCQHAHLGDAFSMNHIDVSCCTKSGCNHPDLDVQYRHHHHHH
Procedure: (§1) A high-density goat anti-human antibody surface over a CM5 Biacore™ chip was prepared using routine amine coupling. […] Each mAb was captured on a separate flow cell using a 30-second contact time at 10 μL/min followed by a 5-minute wash at a 100 μL/min flow rate for stabilization of the mAb baseline. […] All antigen samples were prepared in the running buffer.

[4] = molecular target: T3, mouse uPAR on the surface of NCTC L929 cells (mouse, UniProt P35456 24-298); test: FACS, NCTC L929 mouse cells
T3 construct: whole, on cells; also called cell surface mouse uPAR
T3 sequence (looked up): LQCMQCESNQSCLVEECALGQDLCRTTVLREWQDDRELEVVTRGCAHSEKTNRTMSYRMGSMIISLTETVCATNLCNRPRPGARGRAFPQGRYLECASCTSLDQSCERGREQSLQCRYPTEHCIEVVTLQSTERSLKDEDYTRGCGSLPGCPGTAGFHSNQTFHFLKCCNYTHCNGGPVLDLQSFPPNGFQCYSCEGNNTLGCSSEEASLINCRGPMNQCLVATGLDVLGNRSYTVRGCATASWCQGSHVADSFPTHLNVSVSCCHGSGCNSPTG
Procedure: (§2) To make the mouse cross-reactivity results conclusive, direct binding of the mAbs to cell-bound mouse uPAR was measured using FACS analysis. The mouse cell line derived from the connective tissue, NCTC L929, was employed for FACS analysis. The harvested cells were resuspended at 50,000 cells/well using FACS buffer into a V-bottom plate which was put on ice. […] After washing, Cy5-labeled goat anti-human IgG Fc at 5 μg/ml and 7AAD at 5 μg/ml was added. The mixtures were incubated for 15 min on ice, washed and resuspended in cold FACS buffer for FACS analysis.

[5] = molecular target: T4, murine uPAR (form not stated) (mouse, UniProt P35456 24-297, limits assumed); test: summary column Murine X-reactivity
T4 construct: also called mouse uPAR
T4 sequence (looked up): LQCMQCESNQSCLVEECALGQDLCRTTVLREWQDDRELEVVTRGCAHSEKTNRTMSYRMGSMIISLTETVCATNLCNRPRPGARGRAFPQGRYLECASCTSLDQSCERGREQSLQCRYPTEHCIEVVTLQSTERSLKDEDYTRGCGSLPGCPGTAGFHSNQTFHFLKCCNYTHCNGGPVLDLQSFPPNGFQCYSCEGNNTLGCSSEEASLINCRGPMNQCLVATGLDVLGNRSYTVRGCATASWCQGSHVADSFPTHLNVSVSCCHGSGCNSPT

[6] = molecular target: T3, mouse uPAR on the surface of NCTC L929 …; test: FACS, NCTC L929 mouse cells, mAb 6.25 µg/ml
Procedure: as §2

[7] = molecular target: T5, human Ly6e with a myc tag, expressed in HEK293T cells (human, UniProt Q16553 21-101); test: FACS, HEK293T cells expressing Ly6e, supernatant 1:2
T5 construct: whole, on cells; not shown: myc tag fused on the molecule
T5 sequence (looked up): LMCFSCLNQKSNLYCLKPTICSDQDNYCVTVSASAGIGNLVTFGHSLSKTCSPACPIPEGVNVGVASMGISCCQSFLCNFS

[8] = molecular target: T1, human urokinase-type plasminogen …; test: FACS competition with FITC-tc-uPA, line material
Source text: (§3) Briefly, murine fibroblast L929 cells (ATCC) were transfected to express human uPAR.

[9] = molecular target: T2, soluble recombinant human uPAR/His6 …; test: limited antigen ELISA, uPAR coat 20 ng/mL, sample 1:25
Procedure: (§4) ELISA plates were coated with a lower amount ofuPAR in comparison with the High Antigen Quantitation assay described below (320, 160, 80, 40 and 20 ng/mL). Samples containing one concentration of antibody (Ab) (1:25 dilution) were incubated overnight to allow Ab binding to approach equilibrium.

[10] = molecular target: T2, soluble recombinant human uPAR/His6 …; test: limited antigen ELISA, uPAR coat 80 ng/mL, sample 1:25
Procedure: as §4

[11] = molecular target: T1, human urokinase-type plasminogen …; test: FACS, B300.19 cells expressing human uPAR, anti-human gamma Cy5
[12] = molecular target: T2, soluble recombinant human uPAR/His6 …; test: low resolution Biacore, mAb captured by goat anti-human, hu-uPAR 312 nM;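 note: surface plasmon resonance on a CM5 chip with goat anti-human antibody surface made by amine coupling, each mAb from supernatant captured per flow cell, kinetics fitted including mass transport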
Procedure: as §1
A mass transport coefficient was used in fitting the data.

[13] = molecular target: T1, human urokinase-type plasminogen …; test: FACS competition, FITC-tc-uPA on L929 cells expressing human uPAR, supernatant 1:2
Source text: as §3

[14] = molecular target: T1, human urokinase-type plasminogen …; test: FACS, U937 cells, mAb 5 µg/ml on ice, alexa647 goat anti-human F(ab), not stripped
Procedure: A cell suspension containing 100,000 cells was pipetted into each well of a V-bottom plates in duplicate. Two V-bottom plates were prepared, one to be kept at 37° C. during internalization with antibody complex, and the other to be incubated at 4° C. Each of the eight uPAR mAbs was incubated with U937 cells at 5 μg/ml on ice for 15 min. Incubation on ice was necessary to prevent internalization of the primary mAbs. The cells were then washed with cold FACS buffer. Cells were subsequently incubated on ice in 100 μl of 5 μg/ml alexa647-labelled goat anti-humanF(ab) (Invitrogen catalogue number A21249) in cold FACS buffer for 15 min. This allowed the goat FAB bind to the bound uPAR mAbs without permitting any internalization. After a 15 minute incubation on ice, one plate was kept on ice, while the other plate was incubated at 37° C. for 1 hour.
Following the 1 hr incubation with the mAb-FAB complex, the cells were washed twice with cold 5% FACS buffer, and 200 μl of Tris(2-carboxyethyl)phosphine HCl (TCEP) was added to each well as a stripping agent. The plates were both incubated with TCEP on ice for 1 hour, followed by washing and resuspending with FACS buffer. 4 μl of 7-Amino-Actinomycin D (7AAD) was added to each well, followed by 10 min incubation on ice before FACS analysis was conducted.

[15] = molecular target: T6, cynomolgus monkey uPAR, cell-bound (cynomolgus monkey, UniProt Q9GK78 23-305); test: FACS, GeoMean; cynomolgus uPAR expressed on 293T cells; antibody concentration not given
T6 construct: whole, on cells; also called cyno-uPAR
T6 sequence (Q9GK78 23-305): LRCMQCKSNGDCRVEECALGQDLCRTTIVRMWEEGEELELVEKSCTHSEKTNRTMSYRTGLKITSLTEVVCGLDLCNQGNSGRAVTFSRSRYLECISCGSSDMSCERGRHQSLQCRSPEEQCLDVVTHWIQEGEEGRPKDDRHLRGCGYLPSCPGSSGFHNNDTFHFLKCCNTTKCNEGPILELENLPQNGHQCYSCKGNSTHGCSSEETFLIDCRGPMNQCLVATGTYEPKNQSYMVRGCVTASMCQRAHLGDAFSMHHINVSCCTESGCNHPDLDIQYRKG

[16] = molecular target: T1, human urokinase-type plasminogen …; test: FACS, cells expressing human uPAR, line material

T1 sequence (Q03405 23-305): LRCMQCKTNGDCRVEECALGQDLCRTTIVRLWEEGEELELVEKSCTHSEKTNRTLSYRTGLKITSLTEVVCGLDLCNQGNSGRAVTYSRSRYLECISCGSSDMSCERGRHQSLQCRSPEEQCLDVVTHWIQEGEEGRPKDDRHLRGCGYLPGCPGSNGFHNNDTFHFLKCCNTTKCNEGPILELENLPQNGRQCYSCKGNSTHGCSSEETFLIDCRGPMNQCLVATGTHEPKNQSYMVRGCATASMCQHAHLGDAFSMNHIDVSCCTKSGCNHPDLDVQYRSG

Row | Binder | inhibition of plasminogen activation on U937 cells [1] | Plasminogen activation inhibition (IC50, ug/ml) [2] | Kd [3] | binding result [4] | binding result [5] | X Geo Mean [6] | binding result [7] | Human uPAR/uPA binding inhibition (%, line material) [8] | LA at 20 ng/ml [9] | LA at 80 ng/ml [10] | gCy5 Geo Mean Pos Cells [11] | Kd [12] | koff [12] | kon [12] | uPA/uPAR binding Inhibition % [13] | geo mean cold - TCEP [14] | binding result [15] | Ab to cell bound Ag (line material, FACS) [16]
1 | anti-uPAR monoclonal antibody 4.12.1 (antibody, V domains shown) VH: EVQLVESGGGLVQPGGSLRLSCAASGFTFSSYWMSWVRQAPGTGLDWVANINQDGSERYYVDSVKGRFTISRDNAKNSPHLQMNSLRAEDTAVYYCAREGSGGRYGGWYFDLWGRGTLVTVSS VL: not shown | > 90% | 0.067 µg/mL | 20.6 nM | no binding (tested: 6.25 µg/ml) | no binding | 8.97 | no binding (tested: GeoMean ratio 1.95) | 71% | 0.06 | 0.21 | 317 | 20.6 nM | 0.0013 s⁻¹ | 63000 M⁻¹ s⁻¹ | 71% | 33.4 | binds | 
2 | anti-uPAR monoclonal antibody 1.99.1 (antibody, V domains shown) VH: EVQLVESGGGLIQPGGSLRLSCAASGFTVRSNYMSWVRQAPGKGLEWISVIYTGGSTYYADSVKGRFSISRDNSKNTLYLQMNSLRAEDTAVYYCAREGAVAGFDYWGQGTLVTVSS VL: EIVMTQSPATLSVSPGERATLSCRASQSISSNLAWYQQKPGQAPRLLIYGASTRATGIPARFSGSGSGTEFTLTISSLQSEDFAVYYCQQYTNWPLTFGGGTKVEIK | > 90% | 0.066 µg/mL | 3.5 nM | no binding (tested: 6.25 µg/ml) | no binding | 11.7 |  | 78% |  |  |  | 3.5 nM | 0.00042 s⁻¹ | 120000 M⁻¹ s⁻¹ |  | 42.5 | binds | 514
3 | anti-uPAR monoclonal antibody 4.19.1 (antibody, V domains shown) VH: EVQLVESGGGLIQPGGSLRLSCAASGFSVSSNYMNWVRQAPGKGLEWVSVIYTGGSTYYADSVKGRFTISRDNSKNTLYLQMNSLRAEDTAVYYCARDTYLYGMDVWGQGTTVTVSS VL: EIVMTQSPATLSVSPGESATLSCRTSQSVSSNLAWYQQKPGQTPRLLIYGASARATGVPARFSGSGSGTEFTLTISSLQSEDFAVYYCQQYYNWPLTFGGGTKVEIK | > 90% | 0.056 µg/mL | 2.7 nM | no binding (tested: 6.25 µg/ml) | no binding | 9.59 | no binding (tested: GeoMean ratio 1.95) | 77% | 0.16 | 1.03 | 412 | 2.7 nM | 0.00032 s⁻¹ | 120000 M⁻¹ s⁻¹ | 77% | 46 | binds | 
4 | anti-uPAR monoclonal antibody 4.13.1 (antibody, V domains shown, also called 4.13.2) VH: EVQLLESGGGLVQPGGSLRLSCAASGFTFSSYAMSWVRQAPGKGLEWVLGISGSGGSTYYADSVKGRFTISRDNSKNTLYLQMNSLRAEDTAVYYCAKDGYGDYVGWYFDLWGRGTLVTVSS VL: not shown | > 90% | 0.077 µg/mL | 12.6 nM | no binding (tested: 6.25 µg/ml) | no binding | 11.2 | no binding (tested: GeoMean ratio 1.95) | 78% | 0.09 | 0.24 | 28.2 | 12.6 nM | 0.0012 s⁻¹ | 95000 M⁻¹ s⁻¹ | 78% | 37.4 |  | 
5 | anti-uPAR monoclonal antibody 4.50.1 (antibody, V domains shown, also called 4.50.2) VH: QVQLVESGGGVVQPGRSLRLSCAASGFTFSSYGMHWVRQAPGKGLEWVAVIWYDGSNKDYADSVKGRFTISRDNSKNTLYLQMNSLRAEDTAVYYCARDMIVVVITYAFDIWGQGTMVTVSS VL: not shown | > 90% | 0.104 µg/mL | 2.2 nM | no binding (tested: 6.25 µg/ml) | no binding | 8.92 | binds | 67% | 0.21 | 0.64 | 402 | 2.2 nM | 0.00026 s⁻¹ | 120000 M⁻¹ s⁻¹ | 67% | 42.1 | binds | 
